The RNAGym collection of RNA variant scans (doi:10.1073/pnas.2313332121)

B1: TPR t1 (parent)
chain: GACCAAUCUGCCCUCAGAGCUCGAGAACAUCUUCGGAUGCAGAGGAGGCAGGCUUCGGUGGCGCGAUAGCGCCAACGUCCUCAACCUCCAAUGCAUCCCACCACAUGAUGAUGCCUGAAGAGCCUUGGUUUUUUG

Variants of: B1
Experiment: polymerase ribozyme fitness, log enrichment relative to wild type (log ratio); higher = more active; in vitro selection for triplet polymerase activity
Outline: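 Fitness measures genotype enrichment against wild-type enrichment on a logarithmic scale, with inverse-variance-weighted averaging of replicates. The logarithm is base 2, and genotypes were kept only with ≥10 input reads and ≥1 read per output in Illumina sequencing. The sequenced libraries came from one triplicate in vitro selection round, including frozen incubation at −7 °C, of PCR-built, transcribed mutant libraries of each subunit of a heterodimeric triplet polymerase ribozyme.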

Variant	polymerase ribozyme fitness (log ratio)
A24U G122U	-5.4
A26C C56U G61A G63U C115U U129G U131A	-4.23
A26U G61U U87G C98G A121U	-6.57
A24U A37G A108G G110U A121C	-6.34
A24G C62U U81A	-3.04
G25C G69U A111U	-7
A24G C73U U87C	-1.49
A26C C40G U87C C101U C104U	-5.71
A26C G47C C88A C102G A105C C123A	-7.85
A26U G48C C86G	-3.65
A27C C79U A91C G120A	-4.64
A26G A29C	-3.02
A27C C88U	-3.46
G25C C56U A68U A83G C123A C124G	-6.66
A26U G71A C72U A90C U106A	-5.08
A24G U112A	-0.197
G25A U33A G61A G77U C115A	-6.46
A26G C62U	-1.47
A27C G36A G48U A84U G113C G117U C123G	-8.45
A26C G57U	-6.49
A26G C88G C97U C123A	-3.63

Variant	polymerase ribozyme fitness (log ratio)
A26U G42U G57A U78G U106A	-5.03
A26G A37U C72G C123U U133A	-2.74
G25A C123A	-6.12
A27C A29G C62A	-5.73
A26C C53A U112G	-5.53
A26G G63U A95U C99U	-5.64
A26U U78A G110U G120C U133G	-7.89
G25A C49U	-6.96
A26U U78A	-3.18
A26U C73A	-2.82
A26U G51A U54A G69C G117C	-7.56
A26G A74G G93U U106A U109C	-3.92
A26G C124G	0.285
A26U A50U	-4.75
A26U A74U C88A G93A C101U	-5.3
G25C G48U C72G C86G A100U C102A G117U A119G	-7.7
A26G G69A	-4.23
G25C G36U U87A A108G G120A G135C	-5.8
A26U C49G	-3.57
A24U	-5.7
A26C U55G	-5.98

Variant	polymerase ribozyme fitness (log ratio)
A24G G52A C115U	-2.59
A26U G47A C86G	-2.67
A27C C72U	-2.78
G25C U32C G45A C49A A68U G69A A121U	-7.08
A26U G60A	-3.74
A26U G60U	-3.37
A24G U78C	-1.32
A26U G60A U130C	-2.93
A26G A46G G63A	-3.44
A26U A50U G57C	-4.64
A27C C124U	-1.18
A26C G69U G120U	-2.51
A27C C86A	-4.06
A26G G93A	-2.29
A26U C72G	-3.37
A26U C88A A119U	-4.48
A27C G48U	-4.11
G25C G42U G44U C104U C124U	-7.89
A26U U59G C62U	-4.33
G25C U116C	-5.31
A26G U32C G60A C64U	-5.28

Variant	polymerase ribozyme fitness (log ratio)
A24G U55A U130A	-1.66
A24G U78C C114U C115A	-5.31
G25U C104U	-5.92
A26G A66U A84U G110U G135U	-5.61
A24G G58U	-1.2
A26U C53G C80U	-3.08
A24U G110A	-6.09
A26C G47C U112A	-4.78
G25U G44U C56A C70U U109G	-7.02
A27C G36A G47C	-4.8
A26U C64A C115U	-6.23
A26U C102A	-5.29
A26C C56G	-5.43
A26G C34A G44A C124U	-3.54
A24G C85A	-3.6
A24G C85G	-2.32
G25C C123G	-5.25
A24G C86G C99U C114G	-7.76
A26U A37G C53A G120C C123A	-2.54
A26G A37U G42U C72A G120C	-2.36
A27C C62U U92G	-5.85
